The results in this text go back to patent US20260008803A1.

Assay [1] has as its target FcγRIIIa (UniProt P08637). The assay can be described thus: SPR; fold improvement in binding avidity, commercial rituximab as the reference.
Assay [2] has as its target FcγRIIIa (UniProt P08637). Put plainly: SPR (Biacore T200, single cycle kinetics, 25 C); antibody captured by anti-human Fab, FcγRIIIa as analyte; 1:1 Langmuir fit.
Assay [3] has as its target FcγRIIIa (UniProt P08637). The assay can be described thus: SPR; fold improvement in binding avidity against commercial rituximab. (Surface plasmon resonance follows binding to a sensor surface in real time, without labels.)

FcγRIIIa, sequence (P08637 17-208 limits assumed): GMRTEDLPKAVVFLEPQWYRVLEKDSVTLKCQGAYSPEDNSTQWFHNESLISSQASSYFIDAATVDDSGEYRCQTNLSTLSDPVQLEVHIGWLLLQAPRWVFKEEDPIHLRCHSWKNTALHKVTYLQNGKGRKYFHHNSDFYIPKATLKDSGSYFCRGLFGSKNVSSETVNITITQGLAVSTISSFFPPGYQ

As a reminder, the Kd is the free concentration of one partner at which half of the binding sites on the other are occupied at equilibrium, for simple one-to-one binding. The low end stands for tighter binding, the high end for weaker binding. Usually koff stands for a measure of how fast the partners let go of each other. A low value points to a long-lived complex. In general, kon refers to a measure of how fast the partners come together. Lower therefore signals slower complex formation. Regarding “Rituximab (commercial sample; Rituxan, Roche) (antibody)”, the Fold with FcγRIIIa [1] was 1 fold. Also, in the assay with FcγRIIIa [2], the Kd turned out to be 306 nM, the koff was 0.0705 s⁻¹ and the kon worked out at 231000 M⁻¹ s⁻¹.

“Rituximab IgG1 homogeneous glycoform with α2,6-linked 3F^ax-Neu5Ac-terminated biantennary N-glycan (without core fucose) (antibody)” gave a Fold with FcγRIIIa [3] of 37.4 fold. Besides, in the assay with FcγRIIIa [2], the Kd was 8.18 nM, the koff came out at 0.002 s⁻¹ and the kon amounted to 244000 M⁻¹ s⁻¹.

“Rituximab IgG1 homogeneous glycoform with α2,6-linked Neu5Ac-terminated biantennary N-glycan (G2S2, without core fucose) (antibody)” displayed a Fold with FcγRIIIa [3] of 39.9 fold. In the assay with FcγRIIIa [2], this substance showed a Kd of 7.67 nM, a koff of 0.00206 s⁻¹ and a kon of 268000 M⁻¹ s⁻¹.
